Experimental findings from the DeepSol protein solubility set are described below.

The nature of the data set: soluble on expression in E. coli; label from the status in PepcDB or PDB records.
On to “MGSDKIHHHHHHMTTLNSEKVFRDPILGFIHVDDSIILDLINSHEMQRLRRIKHLGVANSVFHGGEQSRFQHSLGVYEISRRMIQALDDNEKFANERHWDHENDLLVQAAALLHDVGHGAYSHTFEHLFDTVHEQFTQKIIVDPSTEVNAILKTVSNDFPERVAAVIGKSYPDKRVVQLISSQLDADRMDYLLRDAYYTGAEYGRYDIERILRLMRPIKDGFAFDIAGVHSIEDYVISRYQMYLQVYFHPVSRGMEVVLENLLIRAQDIFDKDPDNPIFFPIIRPIFALKNKIDIQDYISLDDSVFNTAFNIWQKVDDKILADLSKRFLDRKPLKSIVLNEKTKDLIPSLRKKIKDRGFDPKYYTGENDATDLPYESYSPKTGEEGIKFVYPDGQQVELSKLSPLVEAINGKESIDRRFFFPREMLSNPEINQLYLKYKKTY”, for which the “soluble on expression in E. coli” value was “not soluble”. With “MSGKNEADSKDTGWEQIKDKGKIVVATSGTLYPTSYHDTDSGSDKLTGYEVEVVREAAKRLGLKVEFKEMGIDGMLTAVNSGQVDAAANDIDVTKDREEKFAFSTPYKYSYGTAIVRKDDLSGIKTLKDLKGKKAAGAATTVYMEVARKYGAKEVIYDNATNEQYLKDVANGRTDVILNDYYLQTLALAAFPDLNITIHPDIKYMPNKQALVMKKSNAALQKKMNEALKEMSKDGSLTKLSKQFFNKADVSKKIDADVQDVDLLEHHHHHH”, the “soluble on expression in E. coli” value was “soluble”. As for “MSKDEGKRKKESVVDLTRFLDKEIRVKFQGGREASGVLRGFDQLLNMVLDDCREYLRDPQNPSVVGDETRQLGLIVARGTAITVVSPADGLEQIANPFATQEEE”, the entry is “not soluble”; as for “MSLRFLADIEEYIGFEIPKIEAPSQEEVARKKPEFLAKLNDRPESKKDKSEELNKDIMKLYFNGGKKKKIRAVDFVGTIAKIDGVSADDIGIITIMDNASYVEILNGKGPHVLKVMKNTTVKGKQLKVNKANKEGHHHHHH”, “not soluble”; as for “MSLAQFYSAKRRVTTRQIITVKVNDLDSFGQGVARHNGKALFIPGLLPEESAEVIITEDKKQFARARVSRRLNDSPERETPRCPHFGVCGGCQQQHVSIALQQRSKSAALARLMKHEVNDIIAGAPWGYRRRARLSLNCPPDKPLQMGFRKAGSSDIVNVEQCPVLAPQLAALLPRIRACLASLHGTRHLGHVELVQAGSGTLMILRHTAPLSAADKEKLERFSHSEGLSLFLAPFSEILETVSGEAPWYDSHGLRLAFSPRDFIQVNEAVNQQMVARALEWLDVRAEDRVLDLFCGMGNFTLPLATRAASVIGVEGVPALVEKGRENAIRNGLHNVTFFHENLEEDVTKQPWAKNGFDKVLLDPARAGATGVMRHIIKLKPIRIVYVSCNPATLARDSEALVNAGYEVTRLAMLDMFPHTGHLESMVLFERMEGHHHHHH”, “soluble”. Next, “MATAHYHGSCQCGSVSFEVDADLDHTVICNCSRCKRLGSTLAFAPREKFTLLSGEDKLSEYLFNKHKIHHFFCSTCGIESFAYADGPDGTPMVAVNANCLDGVDPRALKSQAFDGAAA”: “soluble”; “GPGSMEAGGDDLFVINDVEADQMEEVRDARPVEQAQETEADVMESVKGLVPLCVQHAQGPQLSSATFGYDIALMAKRPWAEPGAKLSDYFNYGFNEQSWRVYCAMQEKGEESLLANATAVLQKLELAARPG”: “soluble”; “MMAARLLGTSSRIFKLNKHLHTSKVAFMPVVQFKLSDIGEGIAEVQVKEWYVKEGDTISQFDKVCEVQSDKAAVTISCRYDGIVKKLYHEVDGMARVGQALIDVEIEGNVEEPEQPKKEAASSSPEAPKSSAPKAPESAHSEGKVLATPAVRRIAIENKIKLAEVRGTGKDGRVLKEDVLKFLGQVPADHTSGSTNIRTTHQAPQPSSKSYEPLKEDVAVPIRGYTRAMVKTMTEALKIPHFGYNDEINVDSLVKYRAELKEFAKERHIKLSYMPFFIKAASLALLEYPSLNSTTDEKMENVIHKASHNICLAMDTPGGLVVPNIKNCEQRSIFEIAQELNRLLEAGKKQQIKREDLIDGTFSLSNIGNIGGTYASPVVFPPQVAIGAIGKIEKLPRFDKHDNVIPVNIMKVSWCADHRVVDGATMARFSNRWKFYLEHPSAMLAQLK”: “not soluble”.

For “MVRRLLALSRPLYWLYEKRLLREVKRGPMPRHLGLILDGNRRYARALGLSPTKGHEFGVQKAYEVLEWCLEMGIKTVTVWVFSTDNFKRPPEEVETLMNLFLREAERMAEDHRILEHQVRVRFIGRREGFSPEVVRAIERLERRTEGHRGMFLNIAMGYGGREEIVDAVKRLLLEAEARGLSPKEVAEGLTPEDIARHLYTAGLPDPDFIIRTSGEIRLSGFLLWQSAYSEFYFADVLWPEFRKIDFLRALRSYQARERRFGR”, the “soluble on expression in E. coli” value is “soluble”. Turning to “MGSDKIHHHHHHMQTLLITSSFDKTCDYIQVKFPELNYFRLNVDKFSSYKLEIIADGFRIECGEHRLFSSECSSIYFRKPVFENLDGNIDVQYHNFVHKESYSLIEGLIESFSGRCLSKPSVMRRANNKVFQIMLAKSVGFLMPQLSITNDEIVLKKWAKDDAIVKPLAIGTVEYKTKKEFVQTNRLSSEKDTSALKYAPVYLQKFVDKDYEVRVTAINGQFFPARIDASNPVDWRKPNTETLFTKCVLPENIEQQCRTYMYKSSMDFGCFDFLVKDNVWYFLEMNANGQWGWLDNLFEGKISDAIATYLKSGLKNAHC”, the “soluble on expression in E. coli” value was “not soluble”.

In the case of “MVAASEGNVVIEVDMANGWRGNASGSTSHSGITYSADGVTFAALGDGVGAVFDIARPTTLEDAVIAMVVNVSAEFKASEANLQIFAQLKEDWSKGEWDCLAASSELTADTDLTLTCTIDEDDDKFNQTARDVQVGIQAKGTPAGTITIKSVTITLAQEAYSANVDHLRDLAPSDFPIGVAVSNTDSATYNLLTNSREQAVVKKHFNHLTAGNIMKMSYMQPTEGNFNFTNADAFVDWATENNMTVHGHALVWHSDYQVPNFMKNWAGSAEDFLAALDTHITTIVDHYEAKGNLVSWDVVNAAIDDNSPANFRTTDSAFYVKSGNSSVYIERAFQTARAADPAVILYYNDYNIEQNNAKTTKMVDMVKDFQARSIPIDGVGFQMHVCMNYPSIANISAAMKKVVDLGLLVKITELDVAVNQPHCDAYPANKINPLTEAAQLAQKKRYCDVVKAYLDTVPVNQRGGISVWGTTDANTWLDGLYREQFEDEKISWPLLFDNNYNDKPALRGFADALIGTQCTNTHELHHHHHH”, the “soluble on expression in E. coli” value is “soluble”.

Turning to “MLRRRTFLSWSSGKDSAWALHVLRQDPHVDVIGLFCTVNKVFDRVVMHGVRVALLQQQAESAGLPLHIIEIPYPCSNDEYASAMSAFVDSARKENIECFAFGDLLLEDVRQYREDRLNGTGITPIFPLWGIPTKTLSREMVAGGLKAVITCIDPKRIPESFAGREYNESFLDDIPGSVDPCGEYGEFHTFSFDGPMFQNPIDVVLGETVHRDGFVFTDLLSLTSSTEPTH”, the “soluble on expression in E. coli” value is on record as “not soluble”. As for “MGSDKIHHHHHHKSTFKQELAVGASFGLNFSSVSFAPKVPTKMKLGFNGGATIRWNTEPNLGIQAELNFTQHGWEEKFEEKPQYKYSRTVNYMELPFLTHIHFGSKRVRVFVNLGPKIGYALSESTESNLNGENPNANRPDEQHTLEVQKKFDWGLCGGPGIELRTGIGSFLLEGRYYYALGDMFNSRKGDTFSKSSSQIISAKLTYLIPIFSK”, the entry is “not soluble”.

Consider “MEIRTFLERALKEDLGHGDLFERVLEKDFKATAFVRAKQEGVFSGEKYALELLEMTGIECVQTIKDKERFKPKDALMEIRGDFSMLLKVERTLLNLLQHSSGIATLTSRFVEALNSHKVRLLDTRKTRPLLRIFEKYSVLNGGASNHRLGLDDALMLKDTHLRHVKDLKSFLTHARKNLPFTAKIEIECESFEEAKNAMNAGADIVMCDNLSVLETKEIAAYRDAHYPFVLLEASGNISLESINAYAKSGVDAISVGALIHQATFIDMHMKMA”, for which the “soluble on expression in E. coli” value is on record as “soluble”.
